Target: nucleolin on surface of HCT116 p53-/- cells (Homo sapiens) (UniProt P19338)
Assay: flow
Settings: 2'-F pyrimidines, unit inferred

Sequence of nucleolin on surface of HCT116 p53-/- cells (Homo sapiens) (P19338 2-710): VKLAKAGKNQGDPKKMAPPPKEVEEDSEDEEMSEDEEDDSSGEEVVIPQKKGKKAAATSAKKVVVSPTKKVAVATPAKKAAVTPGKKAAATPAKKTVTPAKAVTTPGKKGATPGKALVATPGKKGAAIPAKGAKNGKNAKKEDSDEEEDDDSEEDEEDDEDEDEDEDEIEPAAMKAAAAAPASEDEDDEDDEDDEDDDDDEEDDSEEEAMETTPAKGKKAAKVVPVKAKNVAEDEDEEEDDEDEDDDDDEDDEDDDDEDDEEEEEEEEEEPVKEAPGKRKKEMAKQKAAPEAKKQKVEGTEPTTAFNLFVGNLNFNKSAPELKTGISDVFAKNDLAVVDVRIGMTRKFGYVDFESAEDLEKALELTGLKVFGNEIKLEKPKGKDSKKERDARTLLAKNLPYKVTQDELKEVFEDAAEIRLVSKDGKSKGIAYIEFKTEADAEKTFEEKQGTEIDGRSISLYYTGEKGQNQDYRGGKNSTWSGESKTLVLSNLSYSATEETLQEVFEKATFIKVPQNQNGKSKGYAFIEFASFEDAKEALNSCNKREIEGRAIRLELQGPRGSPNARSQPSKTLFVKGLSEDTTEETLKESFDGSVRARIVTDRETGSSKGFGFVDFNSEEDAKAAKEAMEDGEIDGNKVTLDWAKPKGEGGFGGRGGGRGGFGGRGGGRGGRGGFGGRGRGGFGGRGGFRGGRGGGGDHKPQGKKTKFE

| Sequence | Kd (DL650-labeled Ev5, HCT116 p53-/- cells, Bmax 2.064) | Kd (DL650-labeled Ev3, HCT116 p53-/- cells, Bmax 3.214) |
| --- | --- | --- |
| GGAAGAGGGAUGGGCACGGUCCAGCGCUAACUGUACCUGCUGUGCCACCCACC [Ev5] | 50.7 nM | – |
| GGGAGAGAGGAAGAGGGAUGGGCACGGUCCAGCGCUAACUGUACCUGCUGUGCCACCCACCG [Ev3] | – | 119 nM |

Source: patent publication US20200283773
